From paper PMC9427763, “Structure and dynamics of Toll immunoreceptor activation in the mosquito Aedes aegypti” (Nature Communications, 2022)
“And” between values parts separate entries of the source, which are not always exact repeats. Identical values can stand only once. Values belong to the binder of their own block, whether it stands above or below them.

Assays:
[1] = molecular target: T1, Drosophila melanogaster Toll (Toll1) ectodomain (Drosophila melanogaster, UniProt P08953 28-807); test: SPR; Biacore T200, CM5 chip; Spz1A, Spz1C and DmSpz proproteins and cys-knot ligands immobilised by amine coupling at pH 4.5; Toll ectodomains injected at 0.1-7.5 μM; 100 mM NaCl, 20 mM HEPES pH 7; 30 μl/min; two-state reaction model; settings: both partners purified
T1 construct: Toll receptor 1, Drosophila melanogaster, purified ectodomain; also called DmToll1; DmToll
T1 sequence (looked up): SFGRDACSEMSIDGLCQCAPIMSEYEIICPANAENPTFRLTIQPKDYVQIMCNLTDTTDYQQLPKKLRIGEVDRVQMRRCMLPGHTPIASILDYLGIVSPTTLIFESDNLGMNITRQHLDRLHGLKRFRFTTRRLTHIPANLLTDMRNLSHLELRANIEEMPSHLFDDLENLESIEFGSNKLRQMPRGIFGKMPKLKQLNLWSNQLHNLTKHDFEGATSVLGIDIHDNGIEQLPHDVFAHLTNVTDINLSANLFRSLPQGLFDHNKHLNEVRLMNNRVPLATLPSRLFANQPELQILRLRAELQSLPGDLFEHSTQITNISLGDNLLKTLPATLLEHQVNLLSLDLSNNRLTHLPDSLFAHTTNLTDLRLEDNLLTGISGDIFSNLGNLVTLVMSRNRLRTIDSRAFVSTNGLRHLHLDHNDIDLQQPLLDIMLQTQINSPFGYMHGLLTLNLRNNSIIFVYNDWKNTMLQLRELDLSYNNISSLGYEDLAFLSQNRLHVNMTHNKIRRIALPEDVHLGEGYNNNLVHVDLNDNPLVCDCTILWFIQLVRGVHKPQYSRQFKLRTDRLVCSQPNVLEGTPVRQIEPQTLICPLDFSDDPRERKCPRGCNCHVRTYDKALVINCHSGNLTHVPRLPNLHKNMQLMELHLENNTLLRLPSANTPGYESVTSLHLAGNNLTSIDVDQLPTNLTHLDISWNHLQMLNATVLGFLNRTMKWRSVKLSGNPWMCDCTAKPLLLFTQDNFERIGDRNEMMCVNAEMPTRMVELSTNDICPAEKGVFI

[2] = molecular target: Aedes aegypti Spaetzle1C cystine-knot domain (residues 219-320), disulphide-linked dimer (Aedes aegypti); test: mass photometry; 25 nM Toll5A with 25 nM Spz1C; PBS pH 7.4; Refeyn OneMP
[3] = molecular target: Aedes aegypti Spaetzle1C cystine-knot domain (residues 219-320), disulphide-linked dimer (Aedes aegypti); test: mass photometry; 50 nM Toll5A with 50 nM Spz1C; PBS pH 7.4; Refeyn OneMP
[4] = molecular target: T2, Aedes aegypti Spaetzle1C cystine-knot domain (residues 219-320), disulphide-linked dimer (Aedes aegypti, intermolecular disulphide bonds between Cys-94 and between Cys-59 of the two chains); test: SPR; heterogeneous ligand fit, site 1
T2 chain: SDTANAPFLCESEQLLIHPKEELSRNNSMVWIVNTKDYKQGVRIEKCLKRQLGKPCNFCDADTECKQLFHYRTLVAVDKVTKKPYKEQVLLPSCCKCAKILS

[5] = molecular target: T2, Aedes aegypti Spaetzle1C cystine-knot …; test: SPR; heterogeneous ligand fit, second site
[6] = molecular target: Aedes aegypti Toll5A ectodomain (residues 1-789) (Aedes aegypti); test: AUC; sedimentation velocity, Toll5A ectodomain alone at ≥ 30 μM; 50,000 rpm, 20 °C; dimer to monomers
[7] = molecular target: Aedes aegypti Spaetzle1C cystine-knot domain (residues 219-320), disulphide-linked dimer (Aedes aegypti); test: AUC; sedimentation velocity, Toll5A with Spz1C at equimolar concentration or in excess; 50,000 rpm, 20 °C
[8] = molecular target: Aedes aegypti Spaetzle1C cystine-knot domain (residues 219-320), disulphide-linked dimer (Aedes aegypti); test: SEC-MALS; 50 μM Toll5A alone or saturated with Spz1C loaded on Superose 6; 50 mM Tris-HCl pH 7.5, 50 mM NaCl
[9] = molecular target: Aedes aegypti Toll5A ectodomain (residues 1-789) (Aedes aegypti); test: as above
[10] = molecular target: Aedes aegypti Spaetzle1C cystine-knot domain (residues 219-320), disulphide-linked dimer (Aedes aegypti); test: SPR; Biacore T200, CM5 chip; Spz1A, Spz1C and DmSpz proproteins and cys-knot ligands immobilised by amine coupling at pH 4.5; Toll ectodomains injected at 0.1-7.5 μM; 100 mM NaCl, 20 mM HEPES pH 7; 30 μl/min; two-state reaction model

Kd [1]: 30 to 80 nM
B1: Drosophila melanogaster Spaetzle (Spz1) (ligand)
chain: VGGSDERFLCRSIRKLVYPKKGLRADDTWQLIVNNDEYKQAIQIEECEGADQPCDFAANFPQSYNPICKQHYTQQTLASIKSDGELDVVQNSFKIPSCCKCALKTG
modifications: disulfide-linked dimer of the processed cys-knot form (C-106; limits from the UniProt chain feature, not given); the proprotein (26-326) was also immobilised

stoichiometry N (Toll5A per Spz1C dimer) [2]: 2 | stoichiometry N (Toll5A per Spz1C dimer (1:1 complex)) [3]: 1 | stoichiometry N (Toll5A per Spz1C dimer (2:1 complex)) [3]: 2 | stoichiometry N (Toll5A per Spz1C dimer (2:2 complex)) [3]: 1 | koff [4]: 0.0324 s⁻¹ | koff [5]: 0.00532 s⁻¹ | stoichiometry N [6]: 2 | stoichiometry N (Toll5A per Spz1C dimer) [7]: 1 and 2 | stoichiometry N (Toll5A per Spz1C dimer) [8]: 2 | stoichiometry N [9]: 2 | Kd [10]: 2000 nM
B2: Aedes aegypti Toll5A ectodomain (residues 1-789) (receptor)
chain: TSTKRFTCPEESEASNCSCEEFPSKTHFYCPDFNPTLYVDVEDRMRVDFKCYDEPHDFKSLPNLAIGSVKLLTVVDCVLDDDRPILESFKFLEVADVRSFVYNNHENGIRYNAKYFEGMEQLENLTLARGVVSIDRDTFSGFLNLKRLTIEHNKLNLQPGTFEALSNLTYLGLVYNGLNEIQPGLFDGLESLEALSLSYNDIKSLSAGSFNGLSSLRMLNLRVNKIESFDANTFASLKELSRLEITLNPFVSLPRGLFSENKKLKTLILTNNRKLVTLPEELLANLKELTVVNLSHNGVGNLPESLLSGSSGIIELNLGYNRLNSLPEELLSDQPQLQVLNLDHNQLESIPDYFLERNVELQTLYLSHNRLRSLSEKAFTKLKNLKELHLENNQLQTIPQFLFSGTPKLEEIYMQNNQLALHANSFINEELSIADNDNTPFQVLQKLRILHLRNNSISTIFQDWYINNLEMQSLDLSFNKLPGLSYTQLQFQSNITLNLSNNEISQVLLIDDLDLQPYQRINVDLNHNPLNCNCNALKFIQLIQSKAEHGLQFNVDQLRCSEPPNLLDATMDQLQTKDLLCDFESADDCPKDCQCAMRLLDHTVIVNCSGRGLTEFPDLPIPSQLHEDFNALEVHVENNRLTKLPNLTKHNEITQLYARNNSIQNLLPHNIPSKLRIIDLSQNLLKMIDDSTLAQINRSSHLETIRLSQNQWLCDCPASSFLIFVQQNSRLISDMSAIRCHPSGKSLDSITVNELCFEDYTTENLYFQ
modifications: Asn-linked glycans visible at positions 151, 194, 481, 521, 634 and 687
